In patent publication US20140087995A1 (published 2014):
Numbered stars: 1 amine (or outer) side, 2 acyl side, 3 side chain; on linkers, the order of the positions; unused ones are H or OH. Bridge positions count the residues as written; N and C are the ends. Side chains are listed from the residue outwards. Ends that are not written are not given here. * marks the point of attachment. C20 diacid = O=C(O)CCCCCCCCCCCCCCCCCCC(=O)*; γGlu = O=C(O)[C@H](CCC(=O)[*:2])N[*:1]; AEEA = NCCOCCOCC(=O)O

T1: human calcitonin receptor (human, UniProt P30988 25-474)
T1 construct: whole, on cells; also called hCTR; hCT
T1 sequence (looked up): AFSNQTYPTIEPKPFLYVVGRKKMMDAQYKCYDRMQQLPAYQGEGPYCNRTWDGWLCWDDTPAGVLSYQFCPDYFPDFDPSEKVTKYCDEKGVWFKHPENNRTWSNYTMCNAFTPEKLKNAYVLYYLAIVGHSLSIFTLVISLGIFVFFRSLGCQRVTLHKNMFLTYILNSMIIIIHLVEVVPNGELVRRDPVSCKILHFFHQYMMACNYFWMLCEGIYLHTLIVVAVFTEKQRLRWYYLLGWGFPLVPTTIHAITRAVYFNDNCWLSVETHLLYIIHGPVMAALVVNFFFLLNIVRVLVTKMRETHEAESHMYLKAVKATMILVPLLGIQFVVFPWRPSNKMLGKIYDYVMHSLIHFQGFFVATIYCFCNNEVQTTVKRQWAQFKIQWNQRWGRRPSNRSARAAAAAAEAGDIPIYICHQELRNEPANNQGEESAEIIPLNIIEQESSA


The binders below were run against T1, human calcitonin receptor (assay: SPA competition with 125I-calcitonin, membranes of BHK hCTR cells (Assay VII)).
Procedure, shortened: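 BHK hCTR membranes 35 ng/μL + SPA beads 0.05 mg/well; buffer 50 mM Hepes pH 7.4, 1 mM CaCl2, 5 mM MgCl₂, 0.1% OA, 0.02% Tween20. 120 min, 25° C., shaking. Scintillation count; IC50 by one-site binding competition.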

Binder | IC50
K([AEEA-γGlu-C20 diacid])CNTATCATQRLAHFLRHSSPNFGAIPSSTNVGPNTY-NH2 (disulfide 2-7; N-terminus assumed; SMILES CC[C@H](C)[C@H](NC(=O)[C@H](C)NC(=O)CNC(=O)[C@H](Cc1ccccc1)NC(=O)[C@H](CC(N)=O)NC(=O)[C@@H]1CCCN1C(=O)[C@H](CO)NC(=O)[C@H](CO)NC(=O)[C@H](Cc1c[nH]cn1)NC(=O)[C@H](CCCNC(=N)N)NC(=O)[C@H](CC(C)C)NC(=O)[C@H](Cc1ccccc1)NC(=O)[C@H](Cc1c[nH]cn1)NC(=O)[C@H](C)NC(=O)[C@H](CC(C)C)NC(=O)[C@H](CCCNC(=N)N)NC(=O)[C@H](CCC(N)=O)NC(=O)[C@@H](NC(=O)[C@H](C)NC(=O)[C@@H]1CSSC[C@H](NC(=O)[C@@H](N)CCCCNC(=O)COCCOCCNC(=O)CC[C@H](NC(=O)CCCCCCCCCCCCCCCCCCC(=O)O)C(=O)O)C(=O)N[C@@H](CC(N)=O)C(=O)N[C@@H]([C@@H](C)O)C(=O)N[C@@H](C)C(=O)N[C@@H]([C@@H](C)O)C(=O)N1)[C@@H](C)O)C(=O)N1CCC[C@H]1C(=O)N[C@@H](CO)C(=O)N[C@@H](CO)C(=O)N[C@H](C(=O)N[C@@H](CC(N)=O)C(=O)N[C@H](C(=O)NCC(=O)N1CCC[C@H]1C(=O)N[C@@H](CC(N)=O)C(=O)N[C@H](C(=O)N[C@@H](Cc1ccc(O)cc1)C(N)=O)[C@@H](C)O)C(C)C)[C@@H](C)O, also called compound 68) | 5.66 nM
K([AEEA-γGlu-C20 diacid])CNTATCATQRLASFLRHSSPNFGAIPSSTPVGSNTY-NH2 (disulfide 2-7; N-terminus assumed; SMILES CC[C@H](C)[C@H](NC(=O)[C@H](C)NC(=O)CNC(=O)[C@H](Cc1ccccc1)NC(=O)[C@H](CC(N)=O)NC(=O)[C@@H]1CCCN1C(=O)[C@H](CO)NC(=O)[C@H](CO)NC(=O)[C@H](Cc1c[nH]cn1)NC(=O)[C@H](CCCNC(=N)N)NC(=O)[C@H](CC(C)C)NC(=O)[C@H](Cc1ccccc1)NC(=O)[C@H](CO)NC(=O)[C@H](C)NC(=O)[C@H](CC(C)C)NC(=O)[C@H](CCCNC(=N)N)NC(=O)[C@H](CCC(N)=O)NC(=O)[C@@H](NC(=O)[C@H](C)NC(=O)[C@@H]1CSSC[C@H](NC(=O)[C@@H](N)CCCCNC(=O)COCCOCCNC(=O)CC[C@H](NC(=O)CCCCCCCCCCCCCCCCCCC(=O)O)C(=O)O)C(=O)N[C@@H](CC(N)=O)C(=O)N[C@@H]([C@@H](C)O)C(=O)N[C@@H](C)C(=O)N[C@@H]([C@@H](C)O)C(=O)N1)[C@@H](C)O)C(=O)N1CCC[C@H]1C(=O)N[C@@H](CO)C(=O)N[C@@H](CO)C(=O)N[C@H](C(=O)N1CCC[C@H]1C(=O)N[C@H](C(=O)NCC(=O)N[C@@H](CO)C(=O)N[C@@H](CC(N)=O)C(=O)N[C@H](C(=O)N[C@@H](Cc1ccc(O)cc1)C(N)=O)[C@@H](C)O)C(C)C)[C@@H](C)O, also called compound 73) | 5.38 nM
K([AEEA-γGlu-C20 diacid])CNTATCATQRLAHFLRHSSPNFGAIPSSTNVGSNTY-NH2 (disulfide 2-7; N-terminus assumed; SMILES CC[C@H](C)[C@H](NC(=O)[C@H](C)NC(=O)CNC(=O)[C@H](Cc1ccccc1)NC(=O)[C@H](CC(N)=O)NC(=O)[C@@H]1CCCN1C(=O)[C@H](CO)NC(=O)[C@H](CO)NC(=O)[C@H](Cc1c[nH]cn1)NC(=O)[C@H](CCCNC(=N)N)NC(=O)[C@H](CC(C)C)NC(=O)[C@H](Cc1ccccc1)NC(=O)[C@H](Cc1c[nH]cn1)NC(=O)[C@H](C)NC(=O)[C@H](CC(C)C)NC(=O)[C@H](CCCNC(=N)N)NC(=O)[C@H](CCC(N)=O)NC(=O)[C@@H](NC(=O)[C@H](C)NC(=O)[C@@H]1CSSC[C@H](NC(=O)[C@@H](N)CCCCNC(=O)COCCOCCNC(=O)CC[C@H](NC(=O)CCCCCCCCCCCCCCCCCCC(=O)O)C(=O)O)C(=O)N[C@@H](CC(N)=O)C(=O)N[C@@H]([C@@H](C)O)C(=O)N[C@@H](C)C(=O)N[C@@H]([C@@H](C)O)C(=O)N1)[C@@H](C)O)C(=O)N1CCC[C@H]1C(=O)N[C@@H](CO)C(=O)N[C@@H](CO)C(=O)N[C@H](C(=O)N[C@@H](CC(N)=O)C(=O)N[C@H](C(=O)NCC(=O)N[C@@H](CO)C(=O)N[C@@H](CC(N)=O)C(=O)N[C@H](C(=O)N[C@@H](Cc1ccc(O)cc1)C(N)=O)[C@@H](C)O)C(C)C)[C@@H](C)O, also called compound 69) | 8.68 nM
K([AEEA-γGlu-C20 diacid])CNTATCATQRLAKFLRHSSPNFGAIPSSTPVGSNTY-NH2 (disulfide 2-7; N-terminus assumed; SMILES CC[C@H](C)[C@H](NC(=O)[C@H](C)NC(=O)CNC(=O)[C@H](Cc1ccccc1)NC(=O)[C@H](CC(N)=O)NC(=O)[C@@H]1CCCN1C(=O)[C@H](CO)NC(=O)[C@H](CO)NC(=O)[C@H](Cc1c[nH]cn1)NC(=O)[C@H](CCCNC(=N)N)NC(=O)[C@H](CC(C)C)NC(=O)[C@H](Cc1ccccc1)NC(=O)[C@H](CCCCN)NC(=O)[C@H](C)NC(=O)[C@H](CC(C)C)NC(=O)[C@H](CCCNC(=N)N)NC(=O)[C@H](CCC(N)=O)NC(=O)[C@@H](NC(=O)[C@H](C)NC(=O)[C@@H]1CSSC[C@H](NC(=O)[C@@H](N)CCCCNC(=O)COCCOCCNC(=O)CC[C@H](NC(=O)CCCCCCCCCCCCCCCCCCC(=O)O)C(=O)O)C(=O)N[C@@H](CC(N)=O)C(=O)N[C@@H]([C@@H](C)O)C(=O)N[C@@H](C)C(=O)N[C@@H]([C@@H](C)O)C(=O)N1)[C@@H](C)O)C(=O)N1CCC[C@H]1C(=O)N[C@@H](CO)C(=O)N[C@@H](CO)C(=O)N[C@H](C(=O)N1CCC[C@H]1C(=O)N[C@H](C(=O)NCC(=O)N[C@@H](CO)C(=O)N[C@@H](CC(N)=O)C(=O)N[C@H](C(=O)N[C@@H](Cc1ccc(O)cc1)C(N)=O)[C@@H](C)O)C(C)C)[C@@H](C)O, also called compound 74) | 79.9 nM

The next lines start with the values.

IC50 | Binder
130 nM | K([γGlu-C20 diacid])CNTATCATQRLARFLRHSSPNFGAIPSSTPVGSNTY-NH2 (disulfide 2-7; N-terminus assumed; SMILES CC[C@H](C)[C@H](NC(=O)[C@H](C)NC(=O)CNC(=O)[C@H](Cc1ccccc1)NC(=O)[C@H](CC(N)=O)NC(=O)[C@@H]1CCCN1C(=O)[C@H](CO)NC(=O)[C@H](CO)NC(=O)[C@H](Cc1c[nH]cn1)NC(=O)[C@H](CCCNC(=N)N)NC(=O)[C@H](CC(C)C)NC(=O)[C@H](Cc1ccccc1)NC(=O)[C@H](CCCNC(=N)N)NC(=O)[C@H](C)NC(=O)[C@H](CC(C)C)NC(=O)[C@H](CCCNC(=N)N)NC(=O)[C@H](CCC(N)=O)NC(=O)[C@@H](NC(=O)[C@H](C)NC(=O)[C@@H]1CSSC[C@H](NC(=O)[C@@H](N)CCCCNC(=O)CC[C@H](NC(=O)CCCCCCCCCCCCCCCCCCC(=O)O)C(=O)O)C(=O)N[C@@H](CC(N)=O)C(=O)N[C@@H]([C@@H](C)O)C(=O)N[C@@H](C)C(=O)N[C@@H]([C@@H](C)O)C(=O)N1)[C@@H](C)O)C(=O)N1CCC[C@H]1C(=O)N[C@@H](CO)C(=O)N[C@@H](CO)C(=O)N[C@H](C(=O)N1CCC[C@H]1C(=O)N[C@H](C(=O)NCC(=O)N[C@@H](CO)C(=O)N[C@@H](CC(N)=O)C(=O)N[C@H](C(=O)N[C@@H](Cc1ccc(O)cc1)C(N)=O)[C@@H](C)O)C(C)C)[C@@H](C)O, also called compound 63)
53.5 nM | K([γGlu-C20 diacid])CNTATCATQRLARFLRHSSPNFGAIPSSTNVGPNTY-NH2 (disulfide 2-7; N-terminus assumed; SMILES CC[C@H](C)[C@H](NC(=O)[C@H](C)NC(=O)CNC(=O)[C@H](Cc1ccccc1)NC(=O)[C@H](CC(N)=O)NC(=O)[C@@H]1CCCN1C(=O)[C@H](CO)NC(=O)[C@H](CO)NC(=O)[C@H](Cc1c[nH]cn1)NC(=O)[C@H](CCCNC(=N)N)NC(=O)[C@H](CC(C)C)NC(=O)[C@H](Cc1ccccc1)NC(=O)[C@H](CCCNC(=N)N)NC(=O)[C@H](C)NC(=O)[C@H](CC(C)C)NC(=O)[C@H](CCCNC(=N)N)NC(=O)[C@H](CCC(N)=O)NC(=O)[C@@H](NC(=O)[C@H](C)NC(=O)[C@@H]1CSSC[C@H](NC(=O)[C@@H](N)CCCCNC(=O)CC[C@H](NC(=O)CCCCCCCCCCCCCCCCCCC(=O)O)C(=O)O)C(=O)N[C@@H](CC(N)=O)C(=O)N[C@@H]([C@@H](C)O)C(=O)N[C@@H](C)C(=O)N[C@@H]([C@@H](C)O)C(=O)N1)[C@@H](C)O)C(=O)N1CCC[C@H]1C(=O)N[C@@H](CO)C(=O)N[C@@H](CO)C(=O)N[C@H](C(=O)N[C@@H](CC(N)=O)C(=O)N[C@H](C(=O)NCC(=O)N1CCC[C@H]1C(=O)N[C@@H](CC(N)=O)C(=O)N[C@H](C(=O)N[C@@H](Cc1ccc(O)cc1)C(N)=O)[C@@H](C)O)C(C)C)[C@@H](C)O, also called compound 65)
